Values joined by “and” are separate entries in the source; they are usually repeats but may differ in a detail not shown here. Equal entries are not always repeated.
target: T1, human Ly6E, N-terminal gD-tagged, stably expressed on PC3 cells (human, UniProt Q16553 21-101); experiment: cell-based Ly6E competitive binding assay on human Ly6E PC3 cells; competitor mouse 9B12
T1 construct: GPI-linked protein on cells; also called hu Ly6E; human Ly6E transfected PC3 cells; not shown: N-terminal gD tag of the retroviral vector
T1 sequence: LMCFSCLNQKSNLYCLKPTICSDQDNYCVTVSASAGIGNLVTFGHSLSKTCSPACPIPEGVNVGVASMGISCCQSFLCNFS
Protocol: (§1) Cell-based Ly6E competitive binding assay—Cultured human Ly6E transfected PC3 cells were harvested with 5 mM EDTA containing PBS. Cells were washed with PBS and added onto a 384-well high binding plate (Meso Scale Discovery Technology (MSD); Gaithersburg, Md.). The plate was kept at room temperature for 1 hr to allow cells to adhere to the plate as described (See Lu, Y., Wong, W. L. & Meng, Y. G. A high throughput electrochemiluminescent cell-binding assay for therapeutic anti-CD20 antibody selection. Journal of Immunological Methods 314, 74-79 (2006)). The plate with cells was blocked with fetal bovine serum containing PBS for 1 hr and then cooled on ice. Serially diluted antibody variant samples were mixed with equal volume of fixed concentration of mouse 9B12 Ab. The mixtures were added onto the plates and incubated at 4° C. with gentle shaking for 1 hr.
(§2) The plate was then washed with cold PBS and an anti-mouse IgG Fc specific Ab (Jackson ImmunoReserach; West Grove, Pa.) labeled with sulfo-ruthenium tag was added to the plate as the detection reagent. The plate was incubated at 4° C. with gentle shaking for 1 hr. After incubation the plate was washed again, and MSD read buffer (MSD; Gaithersburg, Md.) was added onto the wells. The plate was read with a MSD SectorÒ imager 6000. The data was graphed and analyzed using KaleidaGraph software (Synergy Software; Reading, Pa.) to determine IC₅₀ values.

Binder | binding result
humanized 9B12 variant v1 (antibody, V domains shown, IgG. k1 graft / VH2 graft + 49) VH: EVQLVESGPALVKPTQTLTLTCTFSGFSLTGYSVNWIRQPPGKALEWLGMIWGDGSTDYNSALKSRLTISKDTSKNQVVLTMTNMDPVDTATYYCARDYYFNYASWFAYWGQGTLVTVSS VL: DIQMTQSPSSLSASVGDRVTITCSASQGISNYLNWYQQKPGKAPKLLIYYTSNLHSGVPSRFSGSGSGTDFTLTISSLQPEDFATYYCQQYSELPWTFGQGTKVEIK | no binding

target: T1, human Ly6E, N-terminal gD-tagged, …; experiment: cell-based competitive binding on human Ly6E PC3 cells; competitor mouse 9B12
Protocol: as §1, §2

Binder | IC50
humanized 9B12 variant v2 (antibody, V domains shown, IgG. k1 graft / VH2 graft + 24 + 49; Residue changes derived against v12) VH: EVQLVESGPALVKPTQTLTLTCTVSGFSLTGYSVNWIRQPPGKALEWLGMIWGDGSTDYNSALKSRLTISKDTSKNQVVLTMTNMDPVDTATYYCARDYYFNYASWFAYWGQGTLVTVSS VL: DIQMTQSPSSLSASVGDRVTITCSASQGISNYLNWYQQKPGKAPKLLIYYTSNLHSGVPSRFSGSGSGTDFTLTISSLQPEDFATYYCQQYSELPWTFGQGTKVEIK | 28 nM and 37 nM
humanized 9B12 variant v17 (antibody, V domains shown, IgG. k1 graft 43+44+71 / VH2 graft + 24 + 49 + 73; Residue change derived) VH: EVQLVESGPALVKPTQTLTLTCTVSGFSLTGYSVNWIRQPPGKALEWLGMIWGDGSTDYNSALKSRLTISKDNSKNQVVLTMTNMDPVDTATYYCARDYYFNYASWFAYWGQGTLVTVSS VL: DIQMTQSPSSLSASVGDRVTITCSASQGISNYLNWYQQKPGKTVKLLIYYTSNLHSGVPSRFSGSGSGTDYTLTISSLQPEDFATYYCQQYSELPWTFGQGTKVEIK | 29 nM
humanized 9B12 variant v15 (antibody, V domains shown, IgG. k1 graft 43+44+71 / VH3 graft + 71 + 78; Residue changes derived) VH: EVQLVESGGGLVQPGGSLRLSCAASGFSLTGYSVNWVRQAPGKGLEWVGMIWGDGSTDYNSALKSRFTISKDNSKNTVYLQMNSLRAEDTAVYYCARDYYFNYASWFAYWGQGTLVTVSS VL: DIQMTQSPSSLSASVGDRVTITCSASQGISNYLNWYQQKPGKTVKLLIYYTSNLHSGVPSRFSGSGSGTDYTLTISSLQPEDFATYYCQQYSELPWTFGQGTKVEIK | 42 nM and 52 nM
humanized 9B12 variant v4 (antibody, V domains shown, IgG. k1 graft / VH3 graft + 24) VH: EVQLVESGGGLVQPGGSLRLSCAVSGFSLTGYSVNWVRQAPGKGLEWVGMIWGDGSTDYNSALKSRFTISRDNSKNTLYLQMNSLRAEDTAVYYCARDYYFNYASWFAYWGQGTLVTVSS VL: DIQMTQSPSSLSASVGDRVTITCSASQGISNYLNWYQQKPGKAPKLLIYYTSNLHSGVPSRFSGSGSGTDFTLTISSLQPEDFATYYCQQYSELPWTFGQGTKVEIK | 98 nM and 70 nM
humanized 9B12 variant v16 (antibody, V domains shown, IgG. k1 graft 43+44+71 / VH2 graft + 24 + 37 + 49; Residue change derived) VH: EVQLVESGPALVKPTQTLTLTCTVSGFSLTGYSVNWVRQPPGKALEWLGMIWGDGSTDYNSALKSRLTISKDTSKNQVVLTMTNMDPVDTATYYCARDYYFNYASWFAYWGQGTLVTVSS VL: DIQMTQSPSSLSASVGDRVTITCSASQGISNYLNWYQQKPGKTVKLLIYYTSNLHSGVPSRFSGSGSGTDYTLTISSLQPEDFATYYCQQYSELPWTFGQGTKVEIK | 27 nM
humanized 9B12 variant v23 (antibody, V domains shown, IgG. k1 graft + 71 / VH2 graft + 24 + 49 + 73 + 76; Residue changes derived) VH: EVQLVESGPALVKPTQTLTLTCTVSGFSLTGYSVNWIRQPPGKALEWLGMIWGDGSTDYNSALKSRLTISKDNSKSQVVLTMTNMDPVDTATYYCARDYYFNYASWFAYWGQGTLVTVSS VL: DIQMTQSPSSLSASVGDRVTITCSASQGISNYLNWYQQKPGKAPKLLIYYTSNLHSGVPSRFSGSGSGTDYTLTISSLQPEDFATYYCQQYSELPWTFGQGTKVEIK | 54 nM
humanized 9B12 variant v21 (antibody, V domains shown, IgG. k1 graft + 71 / VH2 graft + 24 + 37 + 49; Residue changes derived) VH: EVQLVESGPALVKPTQTLTLTCTVSGFSLTGYSVNWVRQPPGKALEWLGMIWGDGSTDYNSALKSRLTISKDTSKNQVVLTMTNMDPVDTATYYCARDYYFNYASWFAYWGQGTLVTVSS VL: DIQMTQSPSSLSASVGDRVTITCSASQGISNYLNWYQQKPGKAPKLLIYYTSNLHSGVPSRFSGSGSGTDYTLTISSLQPEDFATYYCQQYSELPWTFGQGTKVEIK | 82 nM
humanized 9B12 variant v7 (antibody, V domains shown, IgG. k1 graft 43+44 / VH2 graft + 24 + 49; Residue change derived) VH: EVQLVESGPALVKPTQTLTLTCTVSGFSLTGYSVNWIRQPPGKALEWLGMIWGDGSTDYNSALKSRLTISKDTSKNQVVLTMTNMDPVDTATYYCARDYYFNYASWFAYWGQGTLVTVSS VL: DIQMTQSPSSLSASVGDRVTITCSASQGISNYLNWYQQKPGKTVKLLIYYTSNLHSGVPSRFSGSGSGTDFTLTISSLQPEDFATYYCQQYSELPWTFGQGTKVEIK | 24 nM and 36 nM
humanized 9B12 variant v24 (antibody, V domains shown, IgG. k1 graft + 71 / VH2 graft + 24 + 37 + 49 + 73 + 76; Residue changes derived) VH: EVQLVESGPALVKPTQTLTLTCTVSGFSLTGYSVNWVRQPPGKALEWLGMIWGDGSTDYNSALKSRLTISKDNSKSQVVLTMTNMDPVDTATYYCARDYYFNYASWFAYWGQGTLVTVSS VL: DIQMTQSPSSLSASVGDRVTITCSASQGISNYLNWYQQKPGKAPKLLIYYTSNLHSGVPSRFSGSGSGTDYTLTISSLQPEDFATYYCQQYSELPWTFGQGTKVEIK | 53 nM
humanized 9B12 variant v20 (antibody, V domains shown, IgG. k1 graft 43+44+71 / VH3 graft + 24 + 48 + 67 + 71 + 76 + 78; Residue changes derived) VH: EVQLVESGGGLVQPGGSLRLSCAVSGFSLTGYSVNWVRQAPGKGLEWLGMIWGDGSTDYNSALKSRLTISKDNSKSTVYLQMNSLRAEDTAVYYCARDYYFNYASWFAYWGQGTLVTVSS VL: DIQMTQSPSSLSASVGDRVTITCSASQGISNYLNWYQQKPGKTVKLLIYYTSNLHSGVPSRFSGSGSGTDYTLTISSLQPEDFATYYCQQYSELPWTFGQGTKVEIK | 26 nM
humanized 9B12 variant v22 (antibody, V domains shown, IgG. k1 graft + 71 / VH2 graft + 24 + 49 + 73; Residue changes derived) VH: EVQLVESGPALVKPTQTLTLTCTVSGFSLTGYSVNWIRQPPGKALEWLGMIWGDGSTDYNSALKSRLTISKDNSKNQVVLTMTNMDPVDTATYYCARDYYFNYASWFAYWGQGTLVTVSS VL: DIQMTQSPSSLSASVGDRVTITCSASQGISNYLNWYQQKPGKAPKLLIYYTSNLHSGVPSRFSGSGSGTDYTLTISSLQPEDFATYYCQQYSELPWTFGQGTKVEIK | 59 nM
humanized 9B12 variant v10 (antibody, V domains shown, IgG. k1 graft 43+44 / VH3 graft + 71 + 78; Residue changes derived) VH: EVQLVESGGGLVQPGGSLRLSCAASGFSLTGYSVNWVRQAPGKGLEWVGMIWGDGSTDYNSALKSRFTISKDNSKNTVYLQMNSLRAEDTAVYYCARDYYFNYASWFAYWGQGTLVTVSS VL: DIQMTQSPSSLSASVGDRVTITCSASQGISNYLNWYQQKPGKTVKLLIYYTSNLHSGVPSRFSGSGSGTDFTLTISSLQPEDFATYYCQQYSELPWTFGQGTKVEIK | 61 nM
humanized 9B12 variant v18 (antibody, V domains shown, IgG. k1 graft 43+44+71 / VH2 graft + 24 + 49 + 73 + 76; Residue changes derived) VH: EVQLVESGPALVKPTQTLTLTCTVSGFSLTGYSVNWIRQPPGKALEWLGMIWGDGSTDYNSALKSRLTISKDNSKSQVVLTMTNMDPVDTATYYCARDYYFNYASWFAYWGQGTLVTVSS VL: DIQMTQSPSSLSASVGDRVTITCSASQGISNYLNWYQQKPGKTVKLLIYYTSNLHSGVPSRFSGSGSGTDYTLTISSLQPEDFATYYCQQYSELPWTFGQGTKVEIK | 22 nM
humanized 9B12 variant v25 (antibody, V domains shown, IgG. k1 graft + 71 / VH3 graft + 24 + 48 + 67 + 71 + 76 + 78; Residue changes derived) VH: EVQLVESGGGLVQPGGSLRLSCAVSGFSLTGYSVNWVRQAPGKGLEWLGMIWGDGSTDYNSALKSRLTISKDNSKSTVYLQMNSLRAEDTAVYYCARDYYFNYASWFAYWGQGTLVTVSS VL: DIQMTQSPSSLSASVGDRVTITCSASQGISNYLNWYQQKPGKAPKLLIYYTSNLHSGVPSRFSGSGSGTDYTLTISSLQPEDFATYYCQQYSELPWTFGQGTKVEIK | 56 nM
humanized 9B12 variant v9 (antibody, V domains shown, IgG. k1 graft 43+44 / VH3 graft + 24; Residue changes derived) VH: EVQLVESGGGLVQPGGSLRLSCAVSGFSLTGYSVNWVRQAPGKGLEWVGMIWGDGSTDYNSALKSRFTISRDNSKNTLYLQMNSLRAEDTAVYYCARDYYFNYASWFAYWGQGTLVTVSS VL: DIQMTQSPSSLSASVGDRVTITCSASQGISNYLNWYQQKPGKTVKLLIYYTSNLHSGVPSRFSGSGSGTDFTLTISSLQPEDFATYYCQQYSELPWTFGQGTKVEIK | 34 nM and 44 nM
humanized 9B12 variant v5 (antibody, V domains shown, IgG. k1 graft / VH3 graft + 71 + 78; Residue changes derived) VH: EVQLVESGGGLVQPGGSLRLSCAASGFSLTGYSVNWVRQAPGKGLEWVGMIWGDGSTDYNSALKSRFTISKDNSKNTVYLQMNSLRAEDTAVYYCARDYYFNYASWFAYWGQGTLVTVSS VL: DIQMTQSPSSLSASVGDRVTITCSASQGISNYLNWYQQKPGKAPKLLIYYTSNLHSGVPSRFSGSGSGTDFTLTISSLQPEDFATYYCQQYSELPWTFGQGTKVEIK | 70 nM
humanized 9B12 variant v14 (antibody, V domains shown, IgG. k1 graft 43+44+71 / VH3 graft + 24; Residue change derived) VH: EVQLVESGGGLVQPGGSLRLSCAVSGFSLTGYSVNWVRQAPGKGLEWVGMIWGDGSTDYNSALKSRFTISRDNSKNTLYLQMNSLRAEDTAVYYCARDYYFNYASWFAYWGQGTLVTVSS VL: DIQMTQSPSSLSASVGDRVTITCSASQGISNYLNWYQQKPGKTVKLLIYYTSNLHSGVPSRFSGSGSGTDYTLTISSLQPEDFATYYCQQYSELPWTFGQGTKVEIK | 39 nM and 56 nM
humanized 9B12 variant v19 (antibody, V domains shown, IgG. k1 graft 43+44+71 / VH2 graft + 24 + 37 + 49 + 73 + 76; Residue changes derived) VH: EVQLVESGPALVKPTQTLTLTCTVSGFSLTGYSVNWVRQPPGKALEWLGMIWGDGSTDYNSALKSRLTISKDNSKSQVVLTMTNMDPVDTATYYCARDYYFNYASWFAYWGQGTLVTVSS VL: DIQMTQSPSSLSASVGDRVTITCSASQGISNYLNWYQQKPGKTVKLLIYYTSNLHSGVPSRFSGSGSGTDYTLTISSLQPEDFATYYCQQYSELPWTFGQGTKVEIK | 28 nM

Source: patent publication US20180015177A1 (Genentech, published 2018)
